Laboratory results as given in paper doi:10.1101/2020.10.04.325654 (bioRxiv, 2020).

Assays:
[1] = molecular target: T1, GST-SdhA-CBM2 (Legionella pneumophila, UniProt Q6RCQ3 1029-1260); assay: pull-down
[2] = molecular target: T1, GST-SdhA-CBM2; assay: ELISA

Binder	binding result [1]	binding result [2]
6xHis-OCRL (enzyme) not shown	binds	–
His-tagged ASH/RhoGAP domain of OCRL (536aa-901aa) (domain or fragment) not shown	–	binds
